Assay results reported in publication PMC3794440 (Biochemistry, 2013).
Like-named read-outs stand apart in the source and are kept apart here.

What was measured:
[1] = biological target: T1, wild-type Pin1 (Homo sapiens, UniProt Q13526); test: NMR titration; type: binding; conditions: read-out: equilibrium dissociation constant Kd (WT), 295 K, 16.4 T, 30 mM imidazole-d4 pH 6.6, 5 mM DTT-d10, 30 mM NaCl, 0.03% NaN3, 90% H2O/10% D2O, uncertainties by jack-knife simulations
[2] = biological target: I28A Pin1 (Homo sapiens, UniProt Q13526, I28A); test: NMR titration; type: binding; conditions: read-out: equilibrium dissociation constant Kd (I28A), 295 K, 16.4 T, 30 mM imidazole-d4 pH 6.6, 5 mM DTT-d10, 30 mM NaCl, 0.03% NaN3, 90% H2O/10% D2O, uncertainties by jack-knife simulations
[3] = biological target: T1, wild-type Pin1; test: chromogenic coupled isomerase assay of Kofron et al., WT; type: biochemical; conditions: chromogenic substrate suc-AEPF-pNA

Substance | Kd ([1]; residue A140, PPIase domain) [µM] | Kd ([1]; residue G20, WW domain) [µM] | Kd ([1]; residue R14, WW domain) [µM] | Kd ([1]; residue R54, PPIase domain) [µM] | Kd ([2]; residue G20, WW domain) [µM] | Kd ([2]; residue R14, WW domain) [µM] | Kd ([2]; residue R54, PPIase domain) [µM] | specificity constant kcat/KM (WT) [3] [mM^–1 s^–1]
EQPLpTPVTDL [Cdc25C phosphopeptide] | 9.7 ± 2 | 9.1 ± 0.4 | 2.7 ± 0.7 | 7.8 ± 0.4 | 43.5 ± 3 | 48.5 ± 4.9 | 110 ± 10 | –
WT: full-length wild-type human Pin1 (WW domain and PPIase domain) | – | – | – | – | – | – | – | 4250 ± 213
